Assays:
Conditions in all cases: source organism: Yersinia pestis Nepal516
[1] = target: HLA-C*14:02; assay: IEDB peptide-MHC binding, purified MHC/direct/fluorescence; filed as Kd, often an IC50 or EC50 that approximates it; ≥ and ≤ were set here for values at or beyond the usual limits of such assays
[2] = target: HLA-C*15:02; assay: as above
[3] = target: HLA-B*58:01; assay: IEDB peptide-MHC binding, purified MHC/competitive/fluorescence; filed as Kd, often an IC50 or EC50 that approximates it; ≥ and ≤ were set here for values at or beyond the usual limits of such assays
[4] = target: HLA-B*27:20; assay: as above
[5] = target: HLA-B*15:42; assay: as above
[6] = target: HLA-A*32:15; assay: as above
[7] = target: HLA-B*83:01; assay: as above
[8] = target: HLA-A*02:01; assay: as above
[9] = target: HLA-A*26:01; assay: as above
[10] = target: HLA-C*06:02; assay: as above
[11] = target: HLA-B*15:01; assay: as above
[12] = target: HLA-B*40:13; assay: as above
[13] = target: HLA-B*45:06; assay: as above

YMYDFILRF gave a Kd [1] of 4100 nM, a Kd [2] of at least 20000 nM and a Kd [3] of at least 20000 nM. For the same sequence, the Kd [4] was 63.3 nM, the Kd [5] was at least 5000 nM and the Kd [6] was 908 nM. For the same sequence, the Kd [7] was at least 5000 nM, the Kd [8] was 15.9 nM and the Kd [9] was at least 20000 nM. For the same sequence, the Kd [10] was 1180 nM, the Kd [11] was 2330 nM and the Kd [12] was 159 nM. The Kd [13] was at least 5000 nM.
